Assay: yeast display, Sf9 membrane polyspecificity reagent, FACS + sequencing; frameworks hold sequencing errors
Summary of the method: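 A nanobody's polyreactivity label depends on the gate it was sorted from. Yeast display cells were stained with 10% biotinylated, detergent-solubilized Sf9 membrane reagent for 1 hour at 4 °C, enriched on streptavidin microbeads and sorted by FACS. The low and high (top ~1%) gates were set on anti-HA fluorescence for expression and streptavidin fluorescence for reagent binding.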

| Sequence | polyreactivity (PSR sort gate) |
| --- | --- |
| QVQLVESGGGLVQAGGSLRLSCAASGRTFAYHTMGWYRQAPGKERELVARINSGTSTYYADSVKGRFTISRDNEKNTVYLQMNSLKPEDTAVYYCAARGSESIRWYVGGRYGYWGQGTQVTVSS | low polyreactivity |
| QVQLVESGGGLVQAGGSLRLSCAASGRTFAYNAMGWYRPAPGKEREFVAGISRSGGSTYYADSVKGRFTISRDNAKNTVYLQMNSLKPEDTAVYYCAAQFYALPNVGTKYYSWGQGTQVTVSS | low polyreactivity |
| QVQLVESGGGLVQAGGSLRLSCAASGRTFAYNAMGWYRQAPGKERELVADITSGGSTYYADSVKGRFTISRDNAKNTVYLQMNSLKPEDTAVYYCAAYPQFWYWDYNYWGQGTQVTVSS | high polyreactivity |
| QVQLVESGGGLVQAGGSLRLSCAASGRTFAYNAMGWYRQAPGKERELVASITSGGSTNYADSVKGRFTISRDNAKNTVYLQKNSLKPEDTAVYYCNKDGKYHRVLYDYWGLGTQVTVSS | low polyreactivity |
| QVQLVESGGGLVQAGGSLRLSCAASGRTFAYNAMGWYRQAPGKERELVASITSGGSTNYADSVKGRFTISRDNAKNTVYLQMNSLKPEDTAVFYCNKDGKYHRVLYDYWGQGTQVTVSS | low polyreactivity |
| QVQLVESGGGLVQAGGSLRLSCAASGRTFAYNTMGWYRQAPGKERELVAAITWSGGGTYYADSVKGRFTISRDNAKNTVYLQMNRLKPEDTAVYFCAVEYASPRARYRYYYWGQGTQVSVSS | low polyreactivity |
| QVQLVESGGGLVQAGGSLRLSCAASGRTFAYNTMGWYRQAPGKERELVARINSGTSTYYADSVKGRFTISRDNAKNTVYLQMNRLKPEDTAVYYCNAYSWYGYDYWGQGTQVTVSS | high polyreactivity |
| QVQLVESGGGLVQAGGSLRLSCAASGRTFAYYAMGWYLQAPGKERELVAAISSGGGSTYYADSVKGRFTISRDNAKNTVYLQMNSLKPEDTAVYYCNKGFNYGGWFKKYGYWGQGTQVTVSS | high polyreactivity |
| QVQLVESGGGLVQAGGSLRLSCAASGRTFCSYAMGWYRQAPGKERELVAAIRYRGGSTYYADSVKGRFTISRDNAKNTVDLQMNSLKPEDTAVYYCATNTWYYYQRMYYWGQGTQVTVSS | high polyreactivity |
| QVQLVESGGGLVQAGGSLRLSCAASGRTFDANAMGWYRPAPGKERELVAAISSDGSTNYADSVKGRFTISRDNAKNTVYLQMNSLKPEDTAVYYCATDGKPLIRYDYDYWGQGTQVTVSS | high polyreactivity |
| QVQLVESGGGLVQAGGSLRLSCAASGRTFDFYAMGWYRQAPGKERELVAAISSRGGSTYYADSVKGRFTISRDNAKNTVYLQMNSLKAEDTAVYYCAKDLGYRGRYNYWGQGTQVTVSS | low polyreactivity |
| QVQLVESGGGLVQAGGSLRLSCAASGRTFDGYAMGWYSQAPGKERELVAALSSRSGRTYYADSVKGRFTISRDNAKNTVYLQMNSLKPEDTAGYYCAAVNKPRSEDYGYWGQGTQVTVSS | high polyreactivity |
| QVQLVESGGGLVQAGGSLRLSCAASGRTFDGYTLGGYRQAPGKERELVAAISTGGGSTYYADSVKGRFTISRDNAKNTVYVQLNSLKPEDTAVYDCAARGGSYSFRRYNYWGQGTQVTVSS | high polyreactivity |
| QVQLVESGGGLVQAGGSLRLSCAASGRTFDHYAMGWYRQAPGKERELVAAITSGGSTYYADSVKGRFTISRDNAKNTVYLQMNSLKPEDTAVYYCNKDSSFWGCYIAQVNERDYWGQGTQVTVSS | low polyreactivity |
| QVQLVESGGGLVQAGGSLRLSCAASGRTFDINDMGWYRQAPGKEREFVAAIDWSGGYTYYADSVKGRFIISRDNAKNTVYLQMNSQKPEDTAVYYCNARRKRSYDYWGQGTQGTVSS | low polyreactivity |
| QVQLVESGGGLVQAGGSLRLSCAASGRTFDINTMGWYRQAPGKERELVARISGRGGSTYYADSVKGRFTISRDNAKNTVYLLMNSLKPEYTAVYYCNALGRSVLPQPIGDYWGQGTQVTVSS | high polyreactivity |
| QVQLVESGGGLVQAGGSLRLSCAASGRTFDIYAMGWYRQAPGKERELVAAISSGGSTYYADSVKGRFTISRDNAKNTVYLQMNRLKPEDTAVYYCAVRWYDQVSRRGIGYYWGQGTQVTVSS | low polyreactivity |
| QVQLVESGGGLVQAGGSLRLSCAASGRTFDKYAMGWYRQAPGKERELVAAISYDAGRTYYADSVKGRFTISRDNAKNTVYLQMNSLKPEDTAVYYCNAVRFRGFGWGQGTQVTVSS | high polyreactivity |
| QVQLVESGGGLVQAGGSLRLSCAASGRTFDLYAMGWYRQAPGKERELVARITNIDDSTYYADSVKGRFTISRDNAKNTVYLQMNSLKPEDTAVYYCNAASYSRGPARYDYWGQGTQVTVSS | high polyreactivity |
| QVQLVESGGGLVQAGGSLRLSCAASGRTFDSNAMGWYRQAPGKERELVAAISYSGGSTYYADSVKGRFTISRDNAKNTVYLQMNSLKPEDTAVYYCNAGDVHKKPARDYWGQGTQVTVSS | low polyreactivity |
| QVQLVESGGGLVQAGGSLRLSCAASGRTFDSYTMGWYRQAPGKERELVAAIRSSGGRTYADSVKGRFTISRDNAKNTVYLQMNSLKPEDTAVYYCAAARSYWAKYYYWGQGTQVTVSS | high polyreactivity |
| QVQLVESGGGLVQAGGSLRLSCAASGRTFDVYAMGWYRQAPGKEMELVAAITRRGGSTYYADSVKGRFTISRDNAKNTVNLQMNRLKPEDTAVYYCSAAYSRGSGVGRYRLDYWGKGTQVTVSS | high polyreactivity |

| Sequence | polyreactivity (PSR sort gate) |
| --- | --- |
| QVQLVESGGGLVQAGGSLRLSCAASGRTFDVYAMGWYRQAPGKEREFVASITRSGASTYADSVKGRFTISRDNAKNTVYLQMNSLKPEDTAVYYCNAELDLDTGWDGFVAYDYWGQGTQVSVSS | low polyreactivity |
| QVQLVESGGGLVQAGGSLRLSCAASGRTFDVYAMGWYRQAPGKERELVAAITSGGSTYYADSVKGRFTISRDNAKNTVYLQMNSLKPEDTAVYYCAKASSATRYVQLRQDYDYWGQGTQVTVSS | low polyreactivity |
| QVQLVESGGGLVQAGGSLRLSCAASGRTFDVYAMGWYRQAPGKERELVAAITSGGSTYYADSVKGRFTISRDNAKNTVYLQMNSLKPEDTAVYYCATDVDKSLYDYWGQGTQVTVSS | low polyreactivity |
| QVQLVESGGGLVQAGGSLRLSCAASGRTFDVYAMGWYRQAPGKERELVATIRSDGSTTYADSVKGRFTISRDNAKNTVYLQMTSLKPEDTAVYYCAADFRSGFSSSTTPVQSDWGQGTQVTVSS | low polyreactivity |
| QVQLVESGGGLVQAGGSLRLSCAASGRTFDVYAMGWYRQAPGKERELVATISYRSARTYYADSVKGRFTISRDNAKNTVYLQMNSLKPEDTAVYYCAAYFETWHGFGYWGQGTQVTVSS | high polyreactivity |
| QVQLVESGGGLVQAGGSLRLSCAASGRTFDWNAMGWYRQAPGKERELVAAITYSGGGTYYADSVKGRFTISRDNAKNTVYLQMNSLKPEDTAVYYCAAGYPGTWSYYYWGQGTQVTVSS | low polyreactivity |
| QVQLVESGGGLVQAGGSLRLSCAASGRTFDWYAMGWYRQAPGKERELVAVITGRGGSTYYADSVKGRFTISRDNAKNTVYLQMNSLKPEDTAVYYCAVDRLRYRLGFGFKFDYWGQGTQVTVSS | low polyreactivity |
| QVQLVESGGGLVQAGGSLRLSCAASGRTFDYNAMGWYRQAPGKEREFVAAITKSGGSTNYADSVKGRFTISRDNEKNTVYLQMNSLKPEDTAVYYCNATYVVIHEYDYWGQGTQVTVSS | low polyreactivity |
| QVQLVESGGGLVQAGGSLRLSCAASGRTFDYYAMGWYRQAPGKERELVAAISSSGGSTYYADSVKARFTISRDNAKNTVYLQMNSLKPEDTEVYYCNAYAYRFNHIHHIYTTVGEYWGQGTQVTVSS | high polyreactivity |
| QVQLVESGGGLVQAGGSLRLSCAASGRTFDYYAMGWYRQAPGKERELVAAITKDGGSTYYADSVKGRFTISRDNAKNTVYLQMNSLIPEDTAVYYCAADGPPQYYDPIHYDYWGQGTQVTVSS | low polyreactivity |
| QVQLVESGGGLVQAGGSLRLSCAASGRTFDYYVMGWYRQAPGKERELVAAITSGGSTYYADSVKGRFTISRDNAKNTVYLQMNSMKPEDTAVYYCNNVRGAFYSHLFDYWGQGTQVTVSS | high polyreactivity |
| QVQLVESGGGLVQAGGSLRLSCAASGRTFEGNAMGWSRQAPGKERELVAAISTSGGRTYYADSVKGRFTISRDNAKKSVYLQMNSLKPEDTAVYYCATSFYVYPTYYILDYWGQGTQVTVSS | low polyreactivity |
| QVQLVESGGGLVQAGGSLRLSCAASGRTFEGNAMGWYRQAPGKESELVAAITSGGRTNYADSVKGRFTISRDNAKNTVYLQMNCLKPEDPAVYYCAVETRDRSNYFPGQAYDYWGQGTQVTVSS | low polyreactivity |
| QVQLVESGGGLVQAGGSLRLSCAASGRTFENYAMGWYRQAPGKERELVAAISKSGGSTYYADSVKGRFTISRDNAKNTVYLQMNSLKPEDTAVYYCATRLTSAVGRYLYDFGYWGQGTQVTVSS | high polyreactivity |
| QVQLVESGGGLVQAGGSLRLSCAASGRTFERNAMGWYRQAPGKEREFVAAITEIGGSTYYADSVKGRFTISRDNAKNTVYLQMNSLKPEDTAVYYCAKDGTYSPYDYWGQGTQVTVSS | low polyreactivity |
| QVQLVESGGGLVQAGGSLRLSCAASGRTFERNAMGWYRQAPGKERELVAAITWSGVSTYYADSVKGRFTISRDNAKNTVYLQMNSLKPEDTAVYYCAADWDWRFHRMNYWGQGTQVTVSS | low polyreactivity |
| QVQLVESGGGLVQAGGSLRLSCAASGRTFERNTMRWYRQAPGKERELVAAISYDGGSTYYADSVKGRFTISRDNAKNTVYFQLNSLKPEDRAVYYCNAGGSEIYRSPFDYWGQGTQVTVSS | low polyreactivity |
| QVQLVESGGGLVQAGGSLRLSCAASGRTFEYYAMGWYRQAPGKERELVAGISWSGGSTYYADSVKGRFTISRDNAKNTVYLQMNSLKPEDTAVYYCNARYLPRSTIYDYWGQGTQVTVSS | high polyreactivity |
| QVQLVESGGGLVQAGGSLRLSCAASGRTFFDHALGWYRPAPGKERELVAAITSVGSTYYADSVKGRFTISRDNAKNTVYLQMNSLKPEDTAVYYCAAHRHIHYTDARMDYWGQGTQVTVSS | low polyreactivity |
| QVQLVESGGGLVQAGGSLRLSCAASGRTFFDYTMGWYRQAPGNERELDAAITGGDGSTYYADSVKGRFTISRDNAKNTVYLEMTSLKPEDTAVYYCAAEYTRTYWYAAMDYWGQGTQVTVSS | low polyreactivity |
| QVQLVESGGGLVQAGGSLRLSCAASGRTFFFNAMGWYRQAPGKERELVARISSSGRTNYADSVKGRFTISRDNAKNTVYLQMNSLKPEDTAVYYCAAGRYGLYKSDRSPEYGYWGQGTQVTVSS | high polyreactivity |

Reference: the nanobody polyreactivity screen of Harvey et al. (2022)
